According to article PMC9307952, “Lipoate protein ligase B primarily recognizes the C8-phosphopantetheine arm of its donor substrate and weakly binds the acyl carrier protein” (The Journal of Biological Chemistry, 2022):

Substrate: CCCCCCCC(=O)SCCNC(=O)CCNC(=O)[C@H](O)C(C)(C)COP(=O)(O)OP(=O)(O)OC[C@H]1O[C@@H](n2cnc3c(N)ncnc32)[C@H](O)[C@@H]1OP(=O)(O)O
Assay: purified protein
Conditions: 5 μM LipB, 25 μM E. coli GcvH as acceptor, 0-160 μM C8-CoA, 50 mM Tris-HCl, 200 mM NaCl, pH 8.0, 30 °C

B1: E. coli LipB (EcLipB) (Escherichia coli K-12) (protein)
chain: MYQDKILVRQLGLQPYEPISQAMHEFTDTRDDSTLDEIWLVEHYPVFTQGQAGKAEHILMPGDIPVIQSDRGGQVTYHGPGQQVMYVLLNLKRRKLGVRELVTLLEQTVVNTLAELGIEAHPRADAPGVYVGEKKICSLGLRIRRGCSFHGLALNVNMDLSPFLRINPCGYAGMEMAKISQWKPEATTNNIAPRLLENILALLNNPDFEYITA
Km: 12.24 ± 0.79 µM
Vmax: 1.08 µmol/min
kcat: 0.00367 s⁻¹
